Bridge positions count the residues as written; N and C are the ends. Square brackets hold non-standard residues; d marks the D form. Peptide text beside a SMILES is read from it. * marks the point of attachment. ξ: configuration not given here. NBD = O=[N+]([O-])c1ccc(*)c2nonc12; dDab = NCC[C@@H](N)C(=O)O; Dab = NCC[C@H](N)C(=O)O; AEEA = NCCOCCOCC(=O)O; ξDab = NCCC(N)C(=O)O
Key:
[1] = system: panel of bacteria (P. aeruginosa, A. baumannii, S. maltophilia, K. pneumoniae, E. coli, H. influenzae, MRSA, MSSA, S. pneumoniae); test: In vitro labelling of bacteria by laser scanning confocal microscopy; type: cell-based
Procedure: (§1) In vitro labelling was assessed on benchtop confocal in the presence of compound with bacteria and labelling was compared to NBD-UBINle which served as a reference control for bacterial labelling. […] For the ex vivo and in vivo ovine lung experiments each compound was assessed in a control lung segment (instilled with 2 ml PBS) or a bacterial segment (instilled with 2 ml of 2 optical density of bacteria). Following bacterial instillation, the compound was administered to the segment of interest and this was imaged by probe based confocal laser endomicroscopy (FCFM).

[2] = system: panel of bacteria (Gram-negative and Gram-positive); test: Flow cytometry of bacterial labelling; type: cell-based
Procedure: FIG. 7: NBD-UBIdend labels bacteria selectively over mammalian cells in vitro: A) Example images of a clinically relevant bacterial panel with NBD-UBIdend (5 μM; green) counterstained with the fluorescent generic cellular DNA dye Syto-82 (red) imaged by laser scanning confocal microscopy. B) Quantification of bacterial panel labelling NBD-UBIdend 5 μM (optimal concentration) where every bacteria in the panel is brighter when compared with MSSA and NBD-UBINle 10 μM (optimal concentration) C) Flow cytometry data with unstained bacteria (red), NBD-UBINle 15 μM (blue) and NBD-UBIdend 5 μM labelled bacteria (orange). […] Representative images shown, n≥3 for all experiments.
FIG. 8: NBD-PMX selectively labels Gram-negative bacteria in vitro. Example images of the bacterial panel with NBD-PMX imaged by laser scanning confocal microscopy. A) Bacterial panel with NBD-PMX 1 μM (green) and counterstain with syto-82 (red). […] C) Flow cytometric evaluation of bacterial labelling with NBD-PMX showing unstained bacteria (red) and NBD-PMX (blue) labelled bacteria. […] Representative images shown, n≥3 for all experiments.
Bacteria were prepared and counterstained with Syto 82 nucleic acid stain (Invitrogen, Calif., USA) in a shaking heat block at 37° C. and 350 rpm for 20 minutes. […] This was diluted to 500 uL and analysed using BD FACS Calibur using FL-1 and FL-2 channels, with 10,000 events. […]

human neutrophils = test: Labelling of isolated human neutrophils (confocal); type: cell-based
Procedure: All compounds have undergone biological assessment.
Bacteria were prepared and counterstained with Syto 82 nucleic acid stain (Invitrogen, Calif., USA) in a shaking heat block at 37° C. and 350 rpm for 20 minutes. They were co-incubated with the probe at required concentration in a sealed POC mini chamber, or 8 well confocal chamber. When required the glass coverslip for the POC chamber was coated in fibronectin (for neutrophil experiments) or poly-d-lysine (for bacteria and cell lines) and incubated with cells with one hour at 37° C. to allow adherence prior to bacterial innoculation. Analysis was with ImageJ. Briefly, the Syto channel was automatically thresholded (Huang) and an ROI generated from this. The mean fluorescence intensity on the probe channel within this ROI was quantified. Data presented represents the mean of three separate fields of view.

bacterial panel = test: Retention of labelling upon wash-off (PBS wash) in vitro by confocal; type: cell-based
From the text: FIG. 15: NBD-UBIdend retains fluorescence when wash performed. A) The bacterial panel was imaged by laser scanning confocal microscopy in the continued presence of NBD-UBIdend (black) and following PBS wash (white).
In the distal lung, there is likely to be significant and rapid dissipation of the probes immediately after delivery. Therefore, it is imperative that probe-bacterial labelling remains persistent under these conditions. […] As such, this resistance to ‘wash-off’ represents a surrogate indicator of probe-bacterial affinity which appears to be an absolute requirement for distal lung in situ labelling.
We have obtained evidence that the wash-off properties of the probes, most likely related to affinity and/or the nature of subsequent insertion into the bacterial membrane, impact on whether or not they can be used to successfully image in the lung. The retention of labelling upon removal of probe solution was investigated in vitro by confocal. With all of the linear UBI variants labelling was lost completely upon wash-off. […] Bacteria were pre-labelled with these linear NBD-UBINle compounds and successful labelling was confirmed by imaging the bacterial suspension pre-instillation.

[3] = Stability in saline or BALF from patients with Acute Lung Injury (MALDI-TOF / FTMS); conditions: incubated for 30 minutes
Procedure: FIG. 16: NBD-UBIdend is stable in ALI BALF. […] NBD-PMX is stable in ALI BALF.
Secondly we assessed stability of the probes in broncholalveolar lavage fluid (BALF) from patients with Acute Lung Injury (ALI) by Fourier Transform Mass Spectrometry (FTMS) and Matrix-Assisted Laser Desorption/Ionization Time-of-Flight Mass Spectrometry (MALDI-TOF MS) analysis. NBD-UBINle, NBD-UBIdend and NBD-PMX were incubated for 30 minutes with BALF (FIG. 16).
as §1
Probe was added to saline or pooled BALF from patients with ALI incubated for 30 minutes. A ZipTip (C-18, 0.2 μL) with 5 μL MeCN (with 0.1% TFA as an additive) followed by 20 μL of H2O was washed. The ZipTip was loaded with the sample, washed and eluted into 5 μL of 80% aq. MeCN (with 0.1% TFA as an additive). The sample was analysed by MALDI-TOF (PerSeptive Biosystems Voyager DETMSTR MALDI-TOF mass spectrometer (Applied Biosystems, Foster City, Calif.)).

[4] = system: bacteria on human lung tissue; test: Detection of bacteria in the presence of human lung tissue autofluorescence (FCFM, confocal, FLIM); conditions: FCFM and benchtop confocal
From the text: FIG. 21: Bacteria detected in the presence of human lung tissue autofluorescence. […] B) Live confocal microscopy images (merge) showing merge images of nucleic acid counterstain (red) with no NBD-PMX labelling. Bacteria in right panel can be clearly seen, labelled with NBD-PMX and above the background fluorescence.
FIG. 24: Fluorescence Life Time Imaging easily distinguishes lung tissue from bacteria. […] Imaging performed using NBD-UBIdend and S. aureus on human lung tissue.

[5] = Rodent single dose intratracheal toxicity assessment; type: in vivo, Mice; set-up: Creatinine / Bilirubin / Albumin: unit not given here
[6] = room temperature

With `CC(C)C[C@@H]1NC(=O)[C@@H](Cc2ccccc2)NC(=O)[C@@H](CCN)NC(=O)C(NC(=O)[C@H](CCN)NC(=O)[C@@H](NC(=O)COCCOCCNc2ccc([N+](=O)[O-])c3nonc23)[C@@H](C)O)CCNC(=O)[C@@H]([C@H](C)O)NC(=O)[C@H](CCN)NC(=O)[C@H](CCN)NC1=O` (some centres unmarked) [NBD-PMX] ({NBD-AEEA}-T[Dab][ξDab][dDab][dF]L[Dab][Dab][dT]; lactam 3-C) the “labelling of Gram-positive bacteria” value ([1]; 1 μM) was “minimal/no labelling”, the “fluorescence on Gram-negative versus Gram-positive bacteria” value ([1]; 1 μM, p<0.05) was “significantly higher fluorescence on Gram-negative bacteria” and the bacterial labelling ([1]; Pseudomonas aeruginosa (PA) incubated with A549 cells) was “allows bacterial labelling”. The “labelling of Gram-positive bacteria by flow cytometry” value [2] was “No significant labelling of Gram-positive bacteria”, the “labelling of human neutrophils” value (human neutrophils) was “no labelling of human neutrophils or A549 cells” and the “retention of labelling upon wash-off” value (bacterial panel) was “resistant to wash-off”. The “stability in ALI BALF” value [3] was “demonstrate stability”, the stability in saline [3] was “readily identified in both saline and BALF incubated samples” and the “detection of bacteria above human lung autofluorescence” value [4] was “demonstrating bacterial signal”. For the same compound, the ALP ([5]; 48 hours) was 107.7 ± 17.3 u/l, the ALT ([5]; 48 hours) was 36.0 ± 9.0 u/l and the Albumin ([5]; 48 hours) was 23.7 ± 0.3. For the same compound, the BALF ([5]; 48 hours) was 509.0 ± 270.2 Cells/ul, the Bilirubin ([5]; 48 hours) was 1.2 ± 0.4 and the Creatinine ([5]; 48 hours) was 16.3 ± 8.8. The “Cytospin (% of Neutrophils)” value ([5]; 48 hours) was 0%, the “Cytospin (% of Red Blood Cells)” value ([5]; 48 hours) was 3.9% and the PenH value ([5]; 48 hours) was 0.5 ± 0.05. The “Cytospin (% of Mononuclear cells)” value ([5]; 48 hours, single intratracheal 100 μg/25 g mouse) was 96.1%, the ALP ([5]; 14 days) was 126.3 ± 8.5 u/l and the ALT ([5]; 14 days) was 40.3 ± 4.8 u/l. For the same compound, the Albumin ([5]; 14 days) was 25.3 ± 0.7, the BALF ([5]; 14 days) was 542.0 ± 84.7 Cells/ul and the Bilirubin ([5]; 14 days) was 1.2 ± 0.4. The Creatinine ([5]; 14 days) was 9.7 ± 0.3, the “Cytospin (% of Neutrophils)” value ([5]; 14 days) was 0% and the “Cytospin (% of Red Blood Cells)” value ([5]; 14 days) was 2.3%. For the same compound, the PenH value ([5]; 14 days) was 0.5 ± 0.07, the “Cytospin (% of Mononuclear cells)” value ([5]; 14 days, single intratracheal 100 μg/25 g mouse) was 93.0% and the “organ toxicity (histology)” value ([5]; single instillation, 48 hours and 14 days, compared to PBS control) was “no organ toxicity”. The toxicity ([5]; single intratracheal 100 μg/25 g mouse, 48 hours and 14 days) was “no toxicity” and the Stability [6] was > 1 week.

— patent US10648979B2, “Molecular probes for detecting gram-negative bacteria in vitro and in vivo” (priority 2014, dated 2020)
